Measured values taken from patent publication US7033773B1, “Screening assays for G protein coupled receptor agonists and antagonists” (The General Hospital Corporation, priority 1997, dated 2006).

Assays:
[1] = target: T1, rat PTHR (Rattus norvegicus, UniProt P25961); assay: Cellular cAMP accumulation in LLC-PK1 cells expressing rat PTHR; type: cell-based; conditions: EW5 cells
T1 construct: expressed in transfected cells; host or cells: LLC-PK1 porcine renal epithelial cells (EW5; also EW29, AR-C38, AR-B44)
T1 sequence (P25961 27-591): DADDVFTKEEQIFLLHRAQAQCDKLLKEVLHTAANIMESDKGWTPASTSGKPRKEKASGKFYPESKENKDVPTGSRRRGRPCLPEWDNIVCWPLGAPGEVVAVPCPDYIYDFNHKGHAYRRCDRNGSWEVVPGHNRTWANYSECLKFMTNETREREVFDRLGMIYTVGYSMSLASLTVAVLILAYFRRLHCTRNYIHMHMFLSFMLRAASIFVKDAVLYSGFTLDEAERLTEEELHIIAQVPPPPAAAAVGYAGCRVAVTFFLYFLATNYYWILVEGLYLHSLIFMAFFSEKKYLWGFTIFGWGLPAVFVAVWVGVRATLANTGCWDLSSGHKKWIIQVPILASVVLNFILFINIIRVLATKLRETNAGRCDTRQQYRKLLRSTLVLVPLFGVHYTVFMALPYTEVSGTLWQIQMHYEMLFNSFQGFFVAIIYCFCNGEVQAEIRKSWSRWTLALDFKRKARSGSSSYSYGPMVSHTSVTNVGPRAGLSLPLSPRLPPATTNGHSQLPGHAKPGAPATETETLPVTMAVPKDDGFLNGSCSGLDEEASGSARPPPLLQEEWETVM
Protocol: FIG. 10. Stimulation of cyclic AMP accumulation by hPTH(1-31) and hPTH(1-34) in LLC-PK1 cells that express rat PTHRs. Cyclic AMP accumulation was measured in response to hPTH(1-34) (●) or hPTH(1-31) (Δ) in EW5 cells that expressed 320,000 rat PTHRs per cell. Results are expressed as fold basal.
(§1) Cells were seeded into 24-well plates at a density of 2.5×10^5 cells/well and cultured for a further 2 days before study. The cells were rinsed once with 0.5 ml of ice-cold Buffer B [10 mM HEPES (pH 7.4), 130 mM NaCl, 5 mM KCl, 1.2 mM CaCl2, 1 mM MgCl2, 1.2 mM Na2HPO^4 5 mM glucose, and 0.1% heat-inactivated BSA] supplemented with 1 mM isobtylmethylxanthine (IBMX), and placed on ice. Treatments were added to each well in 0.25 ml of IBMX-supplemented Buffer B, after which the plates were incubated at 37° C. for 15 min. The buffer then was rapidly aspirated, the plates were rapidly transferred onto liquid nitrogen, and the frozen monolayers were subsequently thawed directly into 0.5 ml of 50 mM HCl. The extracted cAMP then was measured using a commercial RIA kit (Dupont-New England Nuclear, Boston, Mass.). Results were expressed as fold-basal, where basal levels ranged between 38 and 128 pmol/mg protein/15 min. The basal level of cAMP accumulation in native LLC-PK1 cells was not consistently altered in subclones that expressed wild type PTH/PTHrp receptors.

[2] = target: T1, rat PTHR; assay: u-PA secretion bioassay in LLC-PK1 cells expressing rat PTHR; type: cell-based
[3] = target: T2, human PTH/PTHrP receptor (Homo sapiens, UniProt Q03431); assay: Cytosolic free calcium (fura-2) in LLC-PK1 cells expressing human PTHR; conditions: 100 nM peptide; HKRK B7 cells
T2 sequence (Q03431 27-593): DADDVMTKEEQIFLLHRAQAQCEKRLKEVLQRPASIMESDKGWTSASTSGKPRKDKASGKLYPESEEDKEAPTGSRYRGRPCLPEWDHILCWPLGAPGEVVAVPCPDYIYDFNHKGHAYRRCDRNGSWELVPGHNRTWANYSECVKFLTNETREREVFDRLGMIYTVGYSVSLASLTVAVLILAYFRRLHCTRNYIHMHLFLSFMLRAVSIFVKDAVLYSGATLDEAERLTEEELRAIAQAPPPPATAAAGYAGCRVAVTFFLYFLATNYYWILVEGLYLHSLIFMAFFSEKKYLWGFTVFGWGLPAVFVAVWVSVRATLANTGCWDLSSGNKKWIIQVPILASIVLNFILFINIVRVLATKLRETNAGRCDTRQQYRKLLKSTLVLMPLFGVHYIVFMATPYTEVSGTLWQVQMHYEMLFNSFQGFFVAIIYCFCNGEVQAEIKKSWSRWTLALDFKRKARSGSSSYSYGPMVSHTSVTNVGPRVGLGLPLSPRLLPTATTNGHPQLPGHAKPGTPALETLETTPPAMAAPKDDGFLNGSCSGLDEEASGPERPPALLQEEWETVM
Protocol: Cytosolic free calcium was measured in fura 2AM-loaded confluent monolayers of cells.
Cytosolic free calcium was measured by dual fluorescence in cells loaded with the Ca^2+-sensitive intracellular probe fura-2. Cells were seeded onto glass coverslips at a density of 40,000-600,000/cm^2 and incubated for 2 days as described above. Coverslips were washed twice with PBS before loading in phosphate-free Buffer B containing 4 uM of fura-2/AM (Molecular Probes, Eugene, Oreg.) for 30 min at room temperature (22° C.). After washing twice with fura-free Buffer B, the coverslips were mounted in a cuvette containing 2 ml of phosphate-free Buffer B at 37° C. and the emission at 510 nm in response to alternating excitation at 340 and 380 nm was monitored using a ratiometric PTI Deltascan fluorescence spectrometer with excitation and emission bandwidths of 2 nm. After achieving a stable baseline, agonists were introduced by exchange into 2 ml of fresh buffer to which 10-20 ul of concentrated agonist stock (or vehicle alone) had been added. Peptide stocks were prepared in 0.1% trifluoroacetic acid, ionomycin and phorbol esters were dissolved in dimethyl sulfoxide and all other additives were prepared in water. Maximum and minimum fluorescence signals were obtained by exposure to modified buffers containing 1 uM ionomycin plus 20 mM calcium or 2 mM EGTA in the nominal absence of calcium, respectively, and autofluorescence was estimated from signals obtained in the presence of ionomycin plus 2.5 mM MnCl2.

[4] = target: T2, human PTH/PTHrP receptor; assay: Cellular cAMP accumulation in LLC-PK1 cells expressing human PTHR; type: cell-based; design: transfected with a full-length human PTH/PTHrP receptor cDNA; expressed in transfected cells; conditions: HKRK B28 cells; similar in HKRK B7
Protocol: as §1
Maximal PTH-dependent cAMP accumulation was assessed in the human PTHR-transfected LLC-PK1 subclones following incubation for 15 min with a high concentration (1000 nM) of hPTH(1-34) (Table 1). As reported previously for LLC-PK1 cells that stably expressed rat PTHRs (Guo, J., et al., Endocrinology 136:3884-3891 (1995)), the maximal adenylyl cyclase response was relatively independent of the surface density of human PTHRs above a relatively low threshold (relative to that required for PLC activation—see below). In the case of the human PTHR, however, this threshold for saturation of maximal AC activation appeared to lie between 120,000 and 280,000 (Table 1), which is at least 6 to 10-fold higher than that previously observed for the rat PTHR (Guo, J., et al., Endocrinology 136:3884-3891 (1995)).

[5] = target: T2, human PTH/PTHrP receptor; assay: Urokinase-type plasminogen activator (u-PA) secretion bioassay in LLC-PK1 cells expressing human PTHR; conditions: for secreted u-PA: peptide 1000 nM, 16 hr, mean±SEM
Protocol: Cells were seeded into 96-well plates at a density of 6×10^4 cells/well and used the following day. The cells were washed once with 0.2 ml and then refed with 0.1 ml of prewarmed DMEM containing 0.05% BSA. After adding each stimulator, plates were returned to the incubator at 37° C. for 16 h. Conditioned medium (5 ul) then was transferred from each well to a clean microplate. […] Activity was expressed in Ploug units/well, using purified human urokinase (Calbiochem) as a standard.
Cells were incubated with the indicated peptides (1000 nM) for 16 hr before measurement of secreted u-PA present in the medium, which was expressed as a percentage of the activity measured in vehicle-treated controls. Values shown are means±SEM of triplicate determinations.

hPTH(1-31)
activation of AC (in words) [1]: activated AC equivalently
u-PA Activity ([2]; EW5 cells, 320,000 rat PTHRs per cell, peptide 1000 nM, mean±SEM): 41.2 ± 1.2 units/well
u-PA production at 16 hr (in words) ([2]; EW5 cells, 100 nM of either peptide): identical
cytosolic free calcium transients [3]: fully activated cytosolic free calcium transients
activation of AC (in words) [4]: indistinguishable from that to hPTH(1-34)
u-PA bioassay activity (in words) ([5]; HKRK B7 and HKRK B28 cells): fully active
maximal activation of u-PA secretion compared with hPTH(1-34) ([5]; HKRK B7 cells and AB45 cells): identical to that of hPTH(1-34)
secreted u-PA ([5]; HKRK B7 cells): 101 ± 9 percentage of the activity measured in vehicle-treated controls
secreted u-PA ([5]; HKRK B28 cells): 101 ± 6 percentage of the activity measured in vehicle-treated controls
